Results reported in patent publication US6794147 (Pfizer, dated 2004).

Molecular target: T1, mouse MLH1 (endogenous, mouse testicular lysates) (mouse, UniProt Q9JK91 1-760)
T1 construct: Endogenous protein immunoprecipitated from mouse testicular lysates
T1 sequence (looked up): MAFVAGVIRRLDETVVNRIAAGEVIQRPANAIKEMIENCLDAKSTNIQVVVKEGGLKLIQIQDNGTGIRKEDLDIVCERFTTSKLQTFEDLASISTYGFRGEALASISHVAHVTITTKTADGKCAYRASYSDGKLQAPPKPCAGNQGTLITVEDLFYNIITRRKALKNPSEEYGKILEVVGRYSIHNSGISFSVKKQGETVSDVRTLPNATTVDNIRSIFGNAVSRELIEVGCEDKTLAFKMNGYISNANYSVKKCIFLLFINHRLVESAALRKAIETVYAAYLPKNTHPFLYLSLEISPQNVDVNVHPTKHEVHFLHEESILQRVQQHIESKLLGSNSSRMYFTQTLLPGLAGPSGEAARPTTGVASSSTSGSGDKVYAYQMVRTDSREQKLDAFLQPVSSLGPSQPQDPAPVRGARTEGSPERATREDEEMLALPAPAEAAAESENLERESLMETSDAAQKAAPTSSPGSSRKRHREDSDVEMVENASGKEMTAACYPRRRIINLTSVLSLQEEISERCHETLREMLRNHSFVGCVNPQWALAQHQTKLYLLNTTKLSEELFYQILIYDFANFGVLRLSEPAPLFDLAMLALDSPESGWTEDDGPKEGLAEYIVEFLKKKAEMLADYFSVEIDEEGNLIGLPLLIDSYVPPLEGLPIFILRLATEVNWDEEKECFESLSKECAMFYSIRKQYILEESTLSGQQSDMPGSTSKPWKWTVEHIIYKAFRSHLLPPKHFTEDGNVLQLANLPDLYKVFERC
Test: co-immunoprecipitation from mouse testicular lysates with anti-RAD51 antibody, Western blotting

B1: mouse RAD51 (endogenous, mouse testicular lysates) (other, UniProt Q08297 2-339, looked up)
chain: AMQMQLEASADTSVEEESFGPQPISRLEQCGINANDVKKLEEAGYHTVEAVAYAPKKELINIKGISEAKADKILTEAAKLVPMGFTTATEFHQRRSEIIQITTGSKELDKLLQGGIETGSITEMFGEFRTGKTQICHTLAVTCQLPIDRGGGEGKAMYIDTEGTFRPERLLAVAERYGLSGSDVLDNVAYARGFNTDHQTQLLYQASAMMVESRYALLIVDSATALYRTDYSGRGELSARQMHLARFLRMLLRLADEFGVAVVITNQVVAQVDGAAMFAADPKKPIGGNIIAHASTTRLYLRKGRGETRICKIYDSPCLPEAEAMFAINADGVGDAKD
notes: Endogenous protein immunoprecipitated from mouse testicular lysates
- binding result: no binding
